Like-named read-outs stand apart in the source and are kept apart here.
What was measured:
[1] = biological target: T1, Rhesus CD122 (rhesus monkey, UniProt Q38J85 27-551 (cynomolgus entry)); assay: flow cytometry (FACS) on rhIL15Rβ-transfected CHO-K1 cells, anti-human IgG-FITC, GeoMFI
T1 construct: also called rhCD122 on cells
T1 sequence: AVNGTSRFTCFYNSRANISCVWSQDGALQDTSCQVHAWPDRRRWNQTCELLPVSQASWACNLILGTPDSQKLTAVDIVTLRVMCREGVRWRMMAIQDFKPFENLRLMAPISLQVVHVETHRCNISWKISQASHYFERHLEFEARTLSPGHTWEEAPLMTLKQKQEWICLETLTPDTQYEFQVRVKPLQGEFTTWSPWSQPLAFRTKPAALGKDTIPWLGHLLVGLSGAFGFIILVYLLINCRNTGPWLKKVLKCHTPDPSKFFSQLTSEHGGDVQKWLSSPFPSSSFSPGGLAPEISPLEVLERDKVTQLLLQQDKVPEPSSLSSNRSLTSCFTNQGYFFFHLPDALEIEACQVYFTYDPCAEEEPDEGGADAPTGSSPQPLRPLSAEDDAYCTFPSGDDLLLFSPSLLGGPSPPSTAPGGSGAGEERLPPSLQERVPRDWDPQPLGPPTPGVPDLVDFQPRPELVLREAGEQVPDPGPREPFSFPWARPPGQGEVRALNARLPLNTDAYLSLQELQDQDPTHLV
Experimental: (§1) Purified IgGs were tested in FACs for binding to human and rhesus CD122 expressed on CHO-K1 stable cell lines and CHO-K1 wild-type cells. The IgG samples were titrated in three-fold serial dilutions starting at 500 nM to […]. Binding of IgGs was detected with a mouse anti-human IgG conjugated to FITC. Results were analyzed by examining the Mean Fluorescence Intensity (MFI) of 10000 cells per sample in the BL-1 channel detector of a flow cytometer (AttuneTM NxT Acoustic Focusing Cytometer, Invitrogen/ ThermoFisher Scientific).

[2] = biological target: T2, Human CD122 (human, UniProt P14784 27-551); assay: flow cytometry (FACS) on huIL15Rβ-transfected CHO-K1 cells, anti-human IgG-FITC, GeoMFI
T2 construct: also called hCD122; IL2RB
T2 sequence: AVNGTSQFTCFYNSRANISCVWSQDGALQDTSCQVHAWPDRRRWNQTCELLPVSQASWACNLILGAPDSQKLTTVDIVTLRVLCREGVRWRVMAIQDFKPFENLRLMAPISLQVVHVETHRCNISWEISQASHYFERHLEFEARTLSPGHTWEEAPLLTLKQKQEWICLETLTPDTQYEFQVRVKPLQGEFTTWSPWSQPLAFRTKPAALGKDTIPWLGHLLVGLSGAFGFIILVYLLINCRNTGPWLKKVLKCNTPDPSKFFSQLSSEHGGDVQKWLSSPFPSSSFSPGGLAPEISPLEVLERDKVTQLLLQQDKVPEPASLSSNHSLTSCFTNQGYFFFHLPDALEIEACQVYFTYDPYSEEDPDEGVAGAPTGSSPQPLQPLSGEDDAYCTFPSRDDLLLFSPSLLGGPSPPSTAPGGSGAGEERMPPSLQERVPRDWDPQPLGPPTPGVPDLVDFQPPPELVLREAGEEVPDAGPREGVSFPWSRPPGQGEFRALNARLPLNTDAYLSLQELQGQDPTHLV
Experimental: as §1

[3] = biological target: T1, Rhesus CD122; assay: flow cytometry (FACS) on rhIL15Rβ-transfected CHO-K1 cells, anti-human IgG-FITC, GeoMFI; remark: listed apart in the source
Experimental: as §1

[4] = biological target: T2, Human CD122; assay: flow cytometry (FACS) on huIL15Rβ-transfected CHO-K1 cells, anti-human IgG-FITC, GeoMFI; remark: listed apart in the source
Experimental: as §1

[5] = biological target: T1, Rhesus CD122; assay: flow cytometry (FACS) on rhIL15Rβ-transfected CHO-K1 cells, anti-human IgG-FITC, GeoMFI; remark: listed apart in the source
Experimental: as §1

[6] = biological target: T1, Rhesus CD122; assay: as above; remark: listed apart in the source
Experimental: as §1

[7] = biological target: T2, Human CD122; assay: flow cytometry (FACS) on huIL15Rβ-transfected CHO-K1 cells, anti-human IgG-FITC, GeoMFI; remark: listed apart in the source
Experimental: as §1

[8] = biological target: T2, Human CD122; assay: cell-based or functional assay
[9] = biological target: T2, Human CD122; assay: flow cytometry (FACS) on huIL15Rβ-transfected CHO-K1 cells, anti-human IgG-FITC, GeoMFI; remark: listed apart in the source
Experimental: as §1

[10] = biological target: T3, EGFR (human, UniProt P00533 25-1210); assay: Retrogenix cell microarray: fixed HEK293 cells reverse-transfected with the target, AF647 anti-human IgG detection
T3 construct: whole, on cells; Control target on the confirmation array
Experimental: (§2) Slides were analyzed as above.
(§3) The plasmid samples for control and potential target receptors were then re-arrayed onto new chips for repeat analyses in duplicate. […] Control experiments using the same cells but no primary antibody (FIG. .

[11] = biological target: T4, CD20 (human, UniProt P11836 1-297); assay: as above
T4 construct: whole, on cells; Control target; also called MS4A1
T4 sequence (looked up): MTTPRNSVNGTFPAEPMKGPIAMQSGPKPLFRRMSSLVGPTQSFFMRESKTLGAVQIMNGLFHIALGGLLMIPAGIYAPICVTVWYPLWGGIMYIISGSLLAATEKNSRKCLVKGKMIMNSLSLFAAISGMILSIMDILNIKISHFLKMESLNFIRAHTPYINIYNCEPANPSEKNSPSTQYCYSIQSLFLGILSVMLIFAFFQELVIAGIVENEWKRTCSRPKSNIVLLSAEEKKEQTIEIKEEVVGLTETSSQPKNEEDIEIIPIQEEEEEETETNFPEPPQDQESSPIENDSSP
Experimental: as §2, §3

[12] = biological target: T2, Human CD122; assay: flow cytometry (FACS) on huIL15Rβ-transfected CHO-K1 cells, anti-human IgG-FITC, GeoMFI; remark: listed apart in the source
Experimental: as §1

B1: IgG1-MIKβ1 (humanized) (antibody, V domains shown)
VH: EVQLLESGGGLVQPGGSLRLSCAASGFSVTSYGVHWIRQAPGKGLEWLGVIWSGGSTDYNAAFISRLTISKDNSKNTVYFQMNSLQAEDTAIYYCARAGDYNYDGFAYWGQGTLVTVSS
VL: DIVLTQSPSSLSASVGDRVTITCSGSSSVSFMYWYQQRPGKAPRLLIYDTSNLASGVPSRFSGSGSGTSYTFTISSLQPEDIATYYCQQWSTYPLTFGQGTKVEVK
notes: also called VillMab-1; VillMAB-1
- EC50 (read off the curve) [1]: ~0.7 nM
- EC50 (read off the curve) [2]: ~0.9 nM
- EC50 (read off the curve) [3]: ~0.7 nM
- EC50 (read off the curve) [4]: ~0.9 nM
- EC50 (read off the curve) [5]: ~0.6 nM
- EC50 (read off the curve) [6]: ~0.6 nM
- EC50 (read off the curve) [7]: ~0.9 nM
- IC50, IL-15-induced M07e cell proliferation [8]: 9.79 µg/mL
- EC50 (read off the curve) [9]: ~0.9 nM
- binding result [10]: no binding (tested: 5 µg/ml)
- binding result [11]: no binding (tested: 5 µg/ml)
- EC50 (read off the curve) [12]: ~0.9 nM
